In PMC7966918 (Cell Research, 2021):

Columns and labels:
[1] = target: T1, SARS-CoV-2 RBD (residues Arg319–Phe541) (SARS-CoV-2, UniProt P0DTC2); assay: SPR; conditions: both partners purified
[2] = target: T1, SARS-CoV-2 RBD (residues Arg319–Phe541); assay: cell-based or functional assay

Row | Binder | Kd [1] | other [2]
1 | P2B-1A10 (full-length IgG) (antibody, V domains shown) VH: EVQLVESGGGLIQPGGSLRLSCAASGFTVSSNYMSWVRQAPGKGLEWVSVIYSGGSTYYADSVKGRFTISRDNSKNTLYLQMNSLRAEDTAVYYCAREGPKSITGTAFDIWGQGTIVTVSS VL: DIQMTQSPSSLSASVGDRVTITCQASQDISNYFNWYQQKPGKAPKLLIYDASNLETGVPSRFSGSGSGTDFTFTISSLQPEDIATYYCQQYDNLPMYTFGQGTKLEIK | 50.8 nM | 81.8%
2 | P5A-2G9 (full-length IgG) (antibody, V domains shown) VH: QVQLVESGGGVVQPGRSLRLSCAASGFTFSSYGMHWVRQAPGKGLEWVAVIWYDGSNKYYADSVKGRFTISRDNSKNTLYLQMNSLRAEDTAVYYCARWFHTGGYFDYWGQGTLVTVSS VL: QPVLTQPPSSSASPGESARLTCTLPSDINVSSYNIYWYQQKPGSPPRYLLYYYSDSDKGQGSGVPSRFSGSKDASANTGILLISGLQSEDEADYYCMIWPSNALYVFGTGTKVTVL | 6.98 nM | 84.9%
3 | P5A-1B9 (full-length IgG) (antibody, V domains shown) VH: QVQLQESGPGLVKPSETLSLTCTVSGGSISSYYWSWIRQPPGKGLEWIGYISYSGSTNYNPSLKSRVTISLDTSKNQFSLKLSSVTAADTAVYYCASNGQYYDILTGQPPDYWYFDLWGRGTLVTVSS VL: not shown | 0.75 nM | 43.8%
4 | P2B-1A1 (full-length IgG) (antibody, V domains shown) VH: QVQLQESGPGLVKPSETLSLTCTVSGGSISSYYWSWIRQPPGKGLEWIGYIYYSGSTNYNPSLKSRVTISVDTSKKQFSLKLSSVTAADTAVYYCARLERDWPLDAFDIWGQGTMVTVSS VL: QSALTQPASVSGSPGQSITISCTGTSSDVGGYNYVSWYQQHPGKAPKFMIYDVSKRPSGVSNRFSGSKSGNTASLTISGLQAEDEADYYCSSYTSNNTFAFGGGTKLTVL | 27 nM | -9.7%
5 | P5A-1B8 (full-length IgG) (antibody, V domains shown) VH: EVQLVESGGGLIQPGGSLRLSCAASGFTVSSNYMSWVRQAPGKGLEWVSVIYPGGSTFYADSVKGRFTISRDNSKNTLYLQMNSLRAEDTAVYYCARETLAFDYWGQGTLVTVSS VL: DIQLTQSPSFLSASVGDRVTITCRASQGISSYLAWYQQKPGKAPKLLIYAASTLQSGVPSRFSGSGSGTEFTLTISSLQPEDFATYYCQQLNSYPPAFGGGTKVEIK | 1.09 nM | 79.6%
6 | P5A-3C12 (full-length IgG) (antibody, V domains shown) VH: QITLKESGPTLVKPTQTLTLTCTFSGFSLSTSGVGVGWIRQPPGKALEWLALIYWDDDKRYSPSLKSRLTITKDTSKNQVVLTMTNMDPVDTATYYCAHSLFLTVGYSSSWSPFDYWGQGTLVTVSS VL: not shown | 1.03 nM | 54.5%
7 | P5A-2G7 (full-length IgG) (antibody, V domains shown) VH: QVQLQESGPGLVKPSETLSLTCTVSGDSVSSGSYYWSWIRQPPGKGLEWIGYIYYSGSTNYNPSLKSRVTISVDTSKNQFSLKLSSVTAADTAVYYCARERCYYGSGRAPRCVWFDPWGQGTLVTVSS VL: QSALTQPASVSGSPGQSITISCTGTSSDVGGYNYVSWYQQHPGKAPKLMIYDVSNRPSGVSNRFSGSKSGNTASLTISGLQAEDEADYYCSSYTSSSTLVVFGGGTKLTVL | 3.55 nM | 57.2%
8 | P5A-1B6 (full-length IgG) (antibody, V domains shown) VH: QVQLVESGGGVVQPGRSLRLSCAASGFTFSSYAMHWVRQAPGKGLEWVAVISYDGSNKYYADSVKGRFTISRDNSKNTLYLQMNSLRAEDTAVYYCARDGQAITMVQGVIGPPFDYWGQGTLVTVSS VL: not shown | 1.01 nM | 76%
9 | P5A-2F11 (full-length IgG) (antibody, V domains shown) VH: QVQLVQSGAEVKKPGASVKVSCKASGYTFTSYDINWVRQATGQGLEWMGWMNPNSGNTGYAQKFQGRVTMTRNTSISTAYMELSSLRSEDTAVYYCARYIVVVPAAKGFDPWGQGTLVTVSS VL: not shown | 5.33 nM | 56.2%
